Source: the supplement of paper PMC10065799, “High-throughput profiling of sequence recognition by tyrosine kinases and SH2 domains using bacterial peptide display” (eLife, 2023)

Key:
SHP2-C SH2 = assay: SH2 binding enrichment of the phosphorylated peptide, bacterial display (enrichment ratio); higher = better substrate or ligand; peptides without Tyr show the background
c-Src SH2 = assay: as above
Grb2 SH2 = Grb2 SH2 (UniProt P62993); assay: as above
Fer (mouse) = assay: phosphorylation enrichment, bacterial display (enrichment ratio); higher = better substrate or ligand; peptides without Tyr show the background
FGFR1 = FGFR1 (UniProt P11362); assay: as above
FGFR3 = FGFR3 (UniProt P22607); assay: as above
Fyn = Fyn (UniProt P06241); assay: as above
Fes = Fes (UniProt P07332); assay: as above
EPHB2 = EPHB2 (UniProt P29323); assay: as above
AncSZ = assay: as above
MERTK = MERTK (UniProt Q12866); assay: as above
EPHB1 = EPHB1 (UniProt P54762); assay: as above
Hck = Hck (UniProt P08631); assay: as above
Jak2 = Jak2 (UniProt O60674); assay: as above
c-Src = assay: as above
c-Abl (mouse) = assay: as above
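Throughout, for SH2 binding enrichment of the phosphorylated peptide, bacterial display: peptide library displayed on the E. coli surface as eCPX fusions, selected cells deep-sequenced, score is each peptide's frequency after selection divided by its frequency in the input.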
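Throughout, for phosphorylation enrichment, bacterial display: 11-residue human phosphosite peptides and single-mutation variants displayed on the E. coli surface, counted by deep sequencing, each peptide's frequency after selection divided by its frequency in the unselected input library; frequency after pTyr selection over input frequency; kinase dosed for 20-30% of maximal phosphorylation in three min.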

Sequence of FGFR3 (P22607 whole entry, looked up): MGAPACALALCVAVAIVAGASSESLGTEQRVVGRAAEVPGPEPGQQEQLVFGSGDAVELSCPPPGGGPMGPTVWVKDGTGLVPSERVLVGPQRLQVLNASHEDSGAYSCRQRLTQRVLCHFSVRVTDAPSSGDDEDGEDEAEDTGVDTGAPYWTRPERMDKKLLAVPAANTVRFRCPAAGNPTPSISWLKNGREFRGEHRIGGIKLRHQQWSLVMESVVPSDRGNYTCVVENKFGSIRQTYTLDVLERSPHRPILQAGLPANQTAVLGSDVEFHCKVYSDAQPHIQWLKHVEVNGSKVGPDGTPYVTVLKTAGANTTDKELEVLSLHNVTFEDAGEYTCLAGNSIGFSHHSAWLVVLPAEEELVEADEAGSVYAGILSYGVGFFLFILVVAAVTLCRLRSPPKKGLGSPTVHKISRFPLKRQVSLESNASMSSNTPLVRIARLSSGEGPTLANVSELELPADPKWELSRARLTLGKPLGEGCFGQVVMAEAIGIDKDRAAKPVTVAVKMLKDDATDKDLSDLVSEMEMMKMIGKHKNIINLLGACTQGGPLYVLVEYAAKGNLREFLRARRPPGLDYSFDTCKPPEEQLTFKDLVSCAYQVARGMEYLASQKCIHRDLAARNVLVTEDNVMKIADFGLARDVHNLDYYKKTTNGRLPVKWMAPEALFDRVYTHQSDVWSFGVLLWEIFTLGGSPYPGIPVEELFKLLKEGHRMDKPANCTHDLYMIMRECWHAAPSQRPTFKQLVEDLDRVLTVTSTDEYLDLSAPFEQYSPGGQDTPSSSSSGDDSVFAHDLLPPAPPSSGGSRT
Sequence of EPHB1 (P54762 whole entry, looked up): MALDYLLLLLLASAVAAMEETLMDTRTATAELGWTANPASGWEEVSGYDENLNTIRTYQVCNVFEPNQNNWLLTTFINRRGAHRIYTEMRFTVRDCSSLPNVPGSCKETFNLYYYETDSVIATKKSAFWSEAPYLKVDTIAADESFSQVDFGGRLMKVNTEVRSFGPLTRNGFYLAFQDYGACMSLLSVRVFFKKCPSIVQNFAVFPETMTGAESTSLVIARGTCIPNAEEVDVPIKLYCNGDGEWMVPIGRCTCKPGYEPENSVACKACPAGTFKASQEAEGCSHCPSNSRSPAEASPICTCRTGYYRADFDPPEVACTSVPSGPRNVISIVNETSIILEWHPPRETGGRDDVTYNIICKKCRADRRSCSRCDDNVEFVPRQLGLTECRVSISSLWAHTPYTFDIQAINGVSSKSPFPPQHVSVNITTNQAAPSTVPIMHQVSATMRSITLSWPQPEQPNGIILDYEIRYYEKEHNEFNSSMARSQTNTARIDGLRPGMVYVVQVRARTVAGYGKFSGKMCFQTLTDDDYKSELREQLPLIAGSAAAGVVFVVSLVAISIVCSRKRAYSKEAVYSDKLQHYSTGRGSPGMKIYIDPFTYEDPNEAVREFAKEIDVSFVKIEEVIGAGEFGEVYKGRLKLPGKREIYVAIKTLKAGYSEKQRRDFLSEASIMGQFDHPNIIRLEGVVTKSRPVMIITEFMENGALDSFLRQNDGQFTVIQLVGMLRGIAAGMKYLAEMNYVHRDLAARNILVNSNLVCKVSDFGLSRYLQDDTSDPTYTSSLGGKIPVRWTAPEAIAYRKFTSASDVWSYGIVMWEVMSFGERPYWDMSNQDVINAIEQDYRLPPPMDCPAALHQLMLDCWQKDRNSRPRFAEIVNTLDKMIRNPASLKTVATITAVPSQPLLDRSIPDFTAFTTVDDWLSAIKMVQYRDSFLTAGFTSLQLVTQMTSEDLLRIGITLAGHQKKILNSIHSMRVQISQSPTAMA
Sequence of EPHB2 (P29323 whole entry, looked up): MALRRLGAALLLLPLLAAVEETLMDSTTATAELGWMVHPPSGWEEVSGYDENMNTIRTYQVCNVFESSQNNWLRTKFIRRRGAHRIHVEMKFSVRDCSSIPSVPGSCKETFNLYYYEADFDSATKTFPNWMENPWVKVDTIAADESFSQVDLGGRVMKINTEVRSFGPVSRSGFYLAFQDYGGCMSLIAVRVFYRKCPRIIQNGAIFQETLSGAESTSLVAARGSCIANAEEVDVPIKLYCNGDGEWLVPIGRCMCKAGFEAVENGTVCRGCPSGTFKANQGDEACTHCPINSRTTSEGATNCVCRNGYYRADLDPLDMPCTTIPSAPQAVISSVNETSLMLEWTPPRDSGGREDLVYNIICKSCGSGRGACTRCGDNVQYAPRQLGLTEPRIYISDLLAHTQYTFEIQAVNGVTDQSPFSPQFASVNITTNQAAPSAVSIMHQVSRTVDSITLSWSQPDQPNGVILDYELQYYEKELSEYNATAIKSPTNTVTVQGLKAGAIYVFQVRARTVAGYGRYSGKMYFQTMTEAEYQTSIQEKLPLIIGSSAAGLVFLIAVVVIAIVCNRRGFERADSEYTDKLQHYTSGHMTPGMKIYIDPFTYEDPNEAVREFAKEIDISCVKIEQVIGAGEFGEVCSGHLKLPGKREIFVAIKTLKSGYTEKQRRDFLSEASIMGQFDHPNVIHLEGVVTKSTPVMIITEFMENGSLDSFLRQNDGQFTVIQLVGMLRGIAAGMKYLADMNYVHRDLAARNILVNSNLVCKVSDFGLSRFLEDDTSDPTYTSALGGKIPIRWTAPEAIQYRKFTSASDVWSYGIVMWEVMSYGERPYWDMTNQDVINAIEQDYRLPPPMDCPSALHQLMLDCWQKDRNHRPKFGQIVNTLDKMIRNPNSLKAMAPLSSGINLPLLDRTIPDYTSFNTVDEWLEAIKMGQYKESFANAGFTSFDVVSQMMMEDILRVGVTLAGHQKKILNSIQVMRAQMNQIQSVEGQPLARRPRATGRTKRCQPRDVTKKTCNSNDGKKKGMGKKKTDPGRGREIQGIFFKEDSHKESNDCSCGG
Sequence of FGFR1 (P11362 whole entry, looked up): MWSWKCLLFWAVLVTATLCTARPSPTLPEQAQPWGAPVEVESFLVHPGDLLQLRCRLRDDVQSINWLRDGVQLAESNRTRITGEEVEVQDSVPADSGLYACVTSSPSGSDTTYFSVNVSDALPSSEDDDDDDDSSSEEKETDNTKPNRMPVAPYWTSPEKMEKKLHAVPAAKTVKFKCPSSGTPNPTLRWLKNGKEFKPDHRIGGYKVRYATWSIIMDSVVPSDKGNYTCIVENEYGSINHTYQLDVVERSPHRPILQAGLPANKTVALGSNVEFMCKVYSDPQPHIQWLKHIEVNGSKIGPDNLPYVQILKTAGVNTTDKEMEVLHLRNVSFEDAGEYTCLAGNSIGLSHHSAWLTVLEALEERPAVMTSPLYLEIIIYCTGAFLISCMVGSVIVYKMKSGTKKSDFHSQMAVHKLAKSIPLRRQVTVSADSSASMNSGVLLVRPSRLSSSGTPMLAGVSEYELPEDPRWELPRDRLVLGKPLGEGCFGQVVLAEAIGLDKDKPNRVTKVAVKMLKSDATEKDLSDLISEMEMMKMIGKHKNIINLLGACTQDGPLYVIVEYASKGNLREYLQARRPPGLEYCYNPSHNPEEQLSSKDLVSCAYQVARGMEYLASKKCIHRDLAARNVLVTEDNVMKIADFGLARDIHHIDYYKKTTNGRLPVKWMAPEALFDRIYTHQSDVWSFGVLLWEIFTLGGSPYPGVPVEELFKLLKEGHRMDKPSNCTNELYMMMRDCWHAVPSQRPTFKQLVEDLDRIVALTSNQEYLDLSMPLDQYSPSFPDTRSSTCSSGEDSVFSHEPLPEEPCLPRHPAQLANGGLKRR
Sequence of Jak2 (O60674 whole entry, looked up): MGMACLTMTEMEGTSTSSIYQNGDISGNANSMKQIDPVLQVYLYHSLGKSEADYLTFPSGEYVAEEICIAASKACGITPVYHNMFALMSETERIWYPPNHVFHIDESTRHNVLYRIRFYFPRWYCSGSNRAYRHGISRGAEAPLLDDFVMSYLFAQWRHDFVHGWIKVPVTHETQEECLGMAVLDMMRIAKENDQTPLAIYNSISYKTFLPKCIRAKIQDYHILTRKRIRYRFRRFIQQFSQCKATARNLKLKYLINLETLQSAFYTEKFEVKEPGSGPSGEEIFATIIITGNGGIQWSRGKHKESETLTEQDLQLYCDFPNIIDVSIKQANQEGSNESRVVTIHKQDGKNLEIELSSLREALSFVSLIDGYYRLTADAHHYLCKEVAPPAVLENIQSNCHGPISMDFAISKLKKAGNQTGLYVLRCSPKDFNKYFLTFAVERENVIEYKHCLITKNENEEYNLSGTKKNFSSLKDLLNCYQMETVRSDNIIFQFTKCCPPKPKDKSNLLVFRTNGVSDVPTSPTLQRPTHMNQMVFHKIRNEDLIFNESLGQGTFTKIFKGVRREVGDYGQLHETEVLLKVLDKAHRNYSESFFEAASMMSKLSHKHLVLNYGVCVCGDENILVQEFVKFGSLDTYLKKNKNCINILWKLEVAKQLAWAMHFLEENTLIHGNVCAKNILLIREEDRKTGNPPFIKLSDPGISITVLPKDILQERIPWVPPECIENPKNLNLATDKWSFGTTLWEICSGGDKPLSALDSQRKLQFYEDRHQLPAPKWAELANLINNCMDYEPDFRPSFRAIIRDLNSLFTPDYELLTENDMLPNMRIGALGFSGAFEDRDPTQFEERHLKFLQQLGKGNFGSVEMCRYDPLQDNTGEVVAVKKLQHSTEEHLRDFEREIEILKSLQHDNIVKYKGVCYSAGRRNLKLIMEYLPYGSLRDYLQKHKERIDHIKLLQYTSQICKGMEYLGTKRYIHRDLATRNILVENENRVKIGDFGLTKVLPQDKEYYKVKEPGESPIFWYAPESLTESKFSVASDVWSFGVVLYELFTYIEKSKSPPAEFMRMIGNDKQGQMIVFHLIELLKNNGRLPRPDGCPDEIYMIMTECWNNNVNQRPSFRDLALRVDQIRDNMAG
Sequence of Grb2 SH2 (P62993 whole entry, looked up): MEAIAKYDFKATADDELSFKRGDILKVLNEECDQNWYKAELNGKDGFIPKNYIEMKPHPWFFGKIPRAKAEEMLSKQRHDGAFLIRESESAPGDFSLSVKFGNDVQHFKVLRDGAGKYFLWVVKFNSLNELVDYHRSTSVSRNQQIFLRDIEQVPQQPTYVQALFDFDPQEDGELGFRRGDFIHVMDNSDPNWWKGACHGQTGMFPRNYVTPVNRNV

Sequence | SH2 binding enrichment (SHP2-C SH2) | SH2 binding enrichment (c-Src SH2) | SH2 binding enrichment (Grb2 SH2) | phosphorylation enrichment (Fer (mouse)) | phosphorylation enrichment (FGFR1) | phosphorylation enrichment (FGFR3) | phosphorylation enrichment (Fyn) | phosphorylation enrichment (Fes) | phosphorylation enrichment (EPHB2) | phosphorylation enrichment (AncSZ) | phosphorylation enrichment (MERTK) | phosphorylation enrichment (EPHB1) | phosphorylation enrichment (Hck) | phosphorylation enrichment (Jak2) | phosphorylation enrichment (c-Src) | phosphorylation enrichment (c-Abl (mouse))
KKHIPYSEHKS [CSNK1G2_Y206_R207S] | 1.41 | 1.51 | 1.62 | 0.72 | 0.483 | 1.1 | 0.374 | 1.52 | 0.644 | 0.718 | 0.606 | 0.488 | 0.565 | 1.37 | 0.781 | 1.53
KKYPDYIQIAR [SGMS2_Y59_M64R] | 0.808 | 0.858 | 1.23 | 0.388 | 3.97 | 2.55 | 0.367 | 0.984 | 1.22 | 0.98 | 0.392 | 7.96 | 0.48 | 1.28 | 0.47 | 0.702
KLLLKYSFHDA [RNF213_Y4141_V4146A] | 1.02 | 0.81 | 1.16 | 0.476 | 0.484 | 0.672 | 0.367 | 1.3 | 0.615 | 1.05 | 0.39 | 0.616 | 0.418 | 0.993 | 0.385 | 0.616
KLQKFYRKNPD [EHHADH_Y683_Q685K_YF] | 0.702 | 0.638 | 0.86 | 0.302 | 0.401 | 0.329 | 0.389 | 0.541 | 0.32 | 0.447 | 0.449 | 0.348 | 0.402 | 0.469 | 0.48 | 0.549
KMKGDYFRSLA [YWHAG_Y130_Y133S_YF] | 0.825 | 0.753 | 0.917 | 0.436 | 0.456 | 0.602 | 0.399 | 0.675 | 0.361 | 0.676 | 0.437 | 0.457 | 0.484 | 0.633 | 0.456 | 0.521
KNAEKYAEEDW [HSPA9_Y568_R573W] | 0.541 | 0.541 | 0.735 | 0.487 | 0.763 | 0.776 | 0.533 | 1.56 | 0.727 | 1.32 | 0.533 | 0.667 | 0.52 | 1.21 | 0.51 | 0.895
KNKNRYKNVLP [PTPN11_Y279_I282V] | 0.886 | 0.803 | 0.734 | 0.414 | 0.419 | 0.716 | 0.372 | 0.593 | 0.398 | 0.551 | 0.473 | 0.426 | 0.412 | 0.767 | 0.449 | 0.881
KNNDGNIDYAE [MCFD2_Y135_Y135N] | 0.792 | 0.694 | 1.05 | 0.453 | 0.501 | 0.916 | 0.462 | 1.13 | 0.53 | 1.13 | 0.479 | 0.572 | 0.524 | 0.776 | 0.388 | 0.62
KRFAFYRDSPR [FOXE3_Y108_E103K] | 0.974 | 0.81 | 1.14 | 0.421 | 0.443 | 0.479 | 0.446 | 0.643 | 0.387 | 0.538 | 0.437 | 0.327 | 0.387 | 0.482 | 0.414 | 0.526
KRGIDYILRHM [FRMD1_Y225] | 1.99 | 1.68 | 1.95 | 0.415 | 0.457 | 0.592 | 0.414 | 0.872 | 0.463 | 0.792 | 0.396 | 0.494 | 0.396 | 0.654 | 0.387 | 0.567
KTKIGYSPLHQ [ANK1_Y735_L733I] | 0.827 | 0.398 | 0.903 | 0.434 | 0.422 | 0.384 | 0.408 | 0.512 | 0.449 | 0.489 | 0.466 | 0.326 | 0.435 | 0.49 | 0.425 | 0.456
KTVQDYLEKFY [MMP8_Y36] | 0.686 | 0.51 | 1.13 | 0.562 | 0.627 | 0.707 | 0.708 | 1.31 | 0.711 | 1.36 | 0.517 | 0.673 | 0.539 | 1.21 | 0.674 | 1.23
KVALVYGQMNQ [ATP5F1B_Y269_E274Q] | 0.636 | 0.434 | 0.703 | 0.506 | 0.424 | 0.634 | 2.16 | 1.27 | 0.641 | 0.726 | 0.425 | 0.496 | 1.78 | 0.841 | 3.17 | 0.829
KVNKIYYPDFI [LIG3_Y767] | 0.695 | 0.636 | 0.834 | 0.481 | 4.13 | 3.46 | 0.607 | 0.762 | 0.45 | 0.727 | 1.05 | 0.536 | 0.668 | 0.68 | 0.724 | 0.589
KVVVPYEPPEV [TP53_Y220_S215K] | 0.472 | 0.86 | 0.709 | 0.38 | 0.442 | 0.632 | 0.458 | 0.866 | 0.573 | 0.921 | 0.402 | 0.452 | 0.406 | 1 | 0.408 | 1.02
KWELRYMHSRV [ABCD1_Y281_G277W] | 0.878 | 0.716 | 1.06 | 0.457 | 0.393 | 0.685 | 0.458 | 1.31 | 0.528 | 1.09 | 0.369 | 0.517 | 0.474 | 1.07 | 0.37 | 0.759
